The values below come from the nanobody polyreactivity screen of Harvey et al. (2022).

A short description of this series: yeast display, Sf9 membrane polyspecificity reagent, FACS + sequencing; frameworks hold sequencing errors. The gist of the method:
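Synthetic nanobody libraries on Saccharomyces cerevisiae BJ5465 were galactose-induced for 36–48 hours, stained 1 hour at 4 °C with 10% biotinylated, detergent-solubilized Sf9 membrane reagent and enriched on streptavidin microbeads. FACS then separated cells into low and high (top ~1%) gates by anti-HA (expression) and streptavidin (reagent binding) fluorescence. Genes were colony-PCR amplified, MiSeq 2 × 250 sequenced and CDR-length filtered. A clone's polyreactivity label is that of its gate of origin.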
With “QVQLVESGGGLVQAGGSLRLSCAASGSIFGYYTMGWYRQAPGKERELVAAITRSGATTFYADSVKGRFTISRDNAKNTVYLQMNSLKPEDTAVYYCAAKARGYTRGYWGQGTQVTVSS”, the “polyreactivity (PSR sort gate)” value was “high polyreactivity”.

For “QVQLVESGGGLVQAGGSLRLSCAASGNAMGWYRQAPGKERELVAAITRRVGSTYYADSVKGRFTISRDNAKNTVYLQMNSLKPEDTAVYYCAADNPSYNLWYGYWGQGTQVTVSS”, the “polyreactivity (PSR sort gate)” value is “low polyreactivity”.

Consider “QVQLVESGGAIVQAGRSLRLSCAASGNIFESYGMGWYRQAPGKERELVATINTSSGSTYYADSVKGRFTISRDNAKYTVYLQMNRLKPEDTAVYYCAVRPKTSWYSWYYLGQGTQVTVSS”, for which the “polyreactivity (PSR sort gate)” value is “low polyreactivity”.

Turning to “QVQLVESGGGLVQAGGSLRLSCAASGYTFRYNTLGGYSQAPGKEREFVAAISSGVGNTYFAVSVKGRFTISRDNAKNTVYLQMNSLKPEDTAVYYCNADYKSSYYWYLWYNYWGQGTQVTVSS”, the “polyreactivity (PSR sort gate)” value was “low polyreactivity”.

In the case of “QVQLVESGGGLVQAGGSLRLSCADSGSTFGFYAMGWYRKAPGKERELVAAISSSGSTYYADSVKGRFTISRDNAKNTVYLQMNILKPEDTAFYSCGAHPGYYDYDYWGQGTQVTVSS”, the “polyreactivity (PSR sort gate)” value was “low polyreactivity”.

With “QVQLVESGGGLVQAGGSLRLSCAASGSTFWSNAMGWYRQAPGKERELVATINSGDGTNYADSVKGRFTISRDNAKNTVYLQMNSLKPEDTAVYYCAAEKYYPWGWYTYDYWGQGTQVTVSS”, the “polyreactivity (PSR sort gate)” value is recorded as “high polyreactivity”.

Consider “QVHLVESGGGLVKAGGSLRISCAASGRTSVLYAMGWYRQAPGKDREFVAAITWNSGSTYYADSVKGRFTISRDNAKHTVYLQMNCLKPEDTAVYYCAADVYYEYDYWGQGTQVTVSS”, for which the “polyreactivity (PSR sort gate)” value is “low polyreactivity”.

In the case of “QVQLEESGGGLVQAGGSLRLSCAASGRIFSPNVRGWYRKATGKERELVAGITSSGGSTYYADSVKGRLTISRDNAKNTVYLQMNSLKPEYTAVYYCAAPWVGTFVSGRGYYWGQGTQVTVSS”, the “polyreactivity (PSR sort gate)” value is “low polyreactivity”.

In the case of “QVQLVESGGGLVQAGGSLRLSCAASGRILYSYTMGWYRPAPGKEREFVAAITRSGGGTYYADSVKGRFTISRDNAKNTVYLQMNSLKPEDTAVYYCAATRNPYRRSNYDYWGQGTQVTVSS”, the “polyreactivity (PSR sort gate)” value is listed as “high polyreactivity”.

Regarding “QVQLVESGGGLVQAGGSLRLSCAASGINFWNYAMGWYRQAPGKERELVAAISSSSGRTYYADSVKGRFTISRDNAKNTVYLQMNSLKPEDTAVYYCAARRSFARRFKNSMEYWGQGTQVTVSS”, the “polyreactivity (PSR sort gate)” value is “high polyreactivity”.

Regarding “QVQLVESGGGLVQAGGSLRLSCAASGFIFYYYAMGWYRQAPGKEREFVAGISRSGGSTYYADSVKGRFTISRDNAKNTVYLQMKSLKPEDTAVYYCAARYVQHKIYRLAQGEYWGQGTQVTVSS”, the “polyreactivity (PSR sort gate)” value is on record as “high polyreactivity”.

Consider “QFQLVESGGGLVQAGGSLRLSCAASGSTFYPNSMGWYRQAPGKEMELVAAISSGGSTSYADSVKGRFTISRDNAKNTVYLQMNSLKPEDTAVYYCNASSPGAVPVYDYDYWGQGTQVTVSS”, for which the “polyreactivity (PSR sort gate)” value is reported as “low polyreactivity”.

Regarding “QVQLVESGGGLVQAGGSLRLSCAASGITFSYYAMGWYRQAPGKEMELVAAISGRDTRTYYADSVKGRFTISRDNAKNTVYLQMNSLKPEDTAVYYCNAVRKHLLKYDYWGQGTQVTVSS”, the “polyreactivity (PSR sort gate)” value is listed as “high polyreactivity”.

Take “QVQLVESGGGLVQAGGSLRLSCAASGTIFDSYAKVWYRQAPGKERELVAAISSSVGSTYYADSVKGRFTISRDNAKNTVYLQMNSLKPEDTAVYYCNADEYWASGYDPYDYWGQGTQVTVSS”: the “polyreactivity (PSR sort gate)” value is “low polyreactivity”.

In the case of “QVQLVESGGGLVQAGGSLRLSCAASGYILGKNVMGWYRPAPGKERELVAAISSGGRTYYADSVKGRFTISRDNAKNTVYLQMNSLKPEDTAVYYCAPDLKYYGYDYWGQGTQVTVSS”, the “polyreactivity (PSR sort gate)” value is listed as “high polyreactivity”.

On to “QVQLVESGGGLVQAGGSLRLSCAASGRIFNGYTMGWYRQAPGKETEFVATISRSGGSTYYADSVKGRFTISRDHAKNTVYLQMNSLKPEDSAVYYCAKTYPAKWEYDYWGQGTQVTVSS”, for which the “polyreactivity (PSR sort gate)” value is “low polyreactivity”.

As to “QVQLVESGGGLVQAGGSLRLSCAASGSIFGVYAMGWYRQAPGKEREFVAAITKRGGSTYYADSVKGRFTISRDNAKNTVYLQMNSLKPEDTAVYYCAARYGRYISSRYGSWGQGTQVTVSS”, the “polyreactivity (PSR sort gate)” value is recorded as “high polyreactivity”.

Regarding “QVQLVESGGGLVQAGGSLRLSCAASGSTFRYNAMGWYRQAPGKEREVVAAISRIGGTTYADSVKGRFTISRDNAKNTVYFQMNSLKPEDTAVYYCARANWGYYGPEYGYWGQGTQVTVSS”, the “polyreactivity (PSR sort gate)” value was “high polyreactivity”.

Take “QVQLVESGGGLVQAGGSLRLSCAASGLTFWDYAMGWYRQAPGKERELVAGINTRGTSTYYADSVKGRFTISRDNAKNTVYLQMNSLKPEDTAVYYCAAEFFGYWYGIQYDYWGQGTQVTVSS”: the “polyreactivity (PSR sort gate)” value is on record as “high polyreactivity”.

As for “QVQLQESGDGLVQAGGSLRLSSGASGTIVSDYGMGGYRQAPGKERELLAGISDGCNTNYTDSVKGRFTISRDNAHRVSADEQPETGGYLGVLLRGTERWLHFYVYWGQGTQVTVSS”, the “polyreactivity (PSR sort gate)” value was “high polyreactivity”.

For “QVQLVESGGGLVQAGGSLRLSCAASGSNFLDNAMGWYRQAPGKERELVAAITSSGGSTYYADSVKGRFTISRDNAKNTVYLQMNSLKPEDTAVYYCAADEWIVHEGYYSSYYYWGQGTQVTVSS”, the “polyreactivity (PSR sort gate)” value is listed as “low polyreactivity”.

Take “QVQLVESGGGLVQAGGILRLSCAASGSTFDINTMGWYRQAPGKEREFVAAITDSDDSTYYADSVKGRFTISRDHAKNTVYLLMNSLKPEDTAVDYCNYDYWGQGTQVTVAS”: the “polyreactivity (PSR sort gate)” value is “low polyreactivity”.

“QVQLVESGGGLVQAGGSLRLSCAASGSIFHYNAMGWYRQAPGKERELVARISVNGGRTYYADSVKGRFTISRDNAKNTDYLQMNSLKPEDTAVYYCAVEGVWRSFFYGYDSWGQGTQVTVSS”: the “polyreactivity (PSR sort gate)” value was “low polyreactivity”.

As for “QVQLVESGGGLLQAGGSLRLSCAASGSTVGINAMGWYRQAPGKERELVASITRRGGSTYYADSVKGRFTISRDNAKNTVYLQMNSLKPEDTAVYYCNKTYRYGTPLYDYWGQGSQVTVSS”, the “polyreactivity (PSR sort gate)” value is listed as “high polyreactivity”.

For the sequence “QVQHVESGGGLVQAGGSLRLSCAASGSTFRPYAMGWYRQAPGKERELVARITVSGDSTYYADSVKGRFTISRDNAKNTVYLQMNSLKPEDTAVYYCAREFDYSLSGFDYWGQGTQVTVSS”, the “polyreactivity (PSR sort gate)” value is listed as “low polyreactivity”.

As to “QVQLVESGGCLVQAGRSLRLSCAASGIIFGGNVMGWYRQAAGKERQLVAAINWSVVTTYYADSVKGRFTISRDNAKNTVYLQMNSLKAADTAVYYCNKDYVTAPYFYFIDTMDYWGQGTQGTVSS”, the “polyreactivity (PSR sort gate)” value was “low polyreactivity”.

As for “QVQLVESGGGLVQAGGSLRLTCAASGSIFEVNAMGWYRQAPGKERELVAGISNADSTNYADSVKGRFTISRDNAKNTVYLQMNSLKPEDTAVYYCATDLDRDLPKDLLGPEYDYWGQGTQVTVSS”, the “polyreactivity (PSR sort gate)” value is “low polyreactivity”.

For “QDQLVESGVGLDQAGGSLRLSCAASGRIFRGSAMGWFSQAPGKEREFVAAITKNGGSTYYADSVNARFTISRDNANNTVYVQMNSLKPEDTAVYDCAVRAWDPDTGNSDYWGQGTQGTVSS”, the “polyreactivity (PSR sort gate)” value is “low polyreactivity”.

For the sequence “QVQLVESGGGLVQAGGSLRLSCAASGYSFSYYAMGWSRQAPGKERELVAAISWSGGSTYYADSVKGRFTISRDNAKNTVYLQMNRLKPEDTAVYYCATEVVAYRRYSAYGYWGQGTQVTVSS”, the “polyreactivity (PSR sort gate)” value is reported as “high polyreactivity”.

Take “QVQLVESGGGLLQAGGSLRLSCAASGRTFYVYAMGWYRQAPGKEREFVAAIDWGGGTTYYADSVKGRFTISRDNAKNNVYLQMNCLKPEDTAVYYCNAAYTDRFYYWGQGTQVTVSS”: the “polyreactivity (PSR sort gate)” value is reported as “high polyreactivity”.

With “QVHLVESGGGLVQAGGSLRLSCAASGKIFRSYMGWYRQAPGKERELVASISRRGGSTYYADSEKGRFTISRDNAKNTVTLQMISLKPEDTAVYYCANVVNYPSARYCYWGQGTQVTVSS”, the “polyreactivity (PSR sort gate)” value is reported as “high polyreactivity”.

With “QVQLVESGVGLVQAGGSLRLSCAASGRTIKANAMGWYRQAPGKERELVAAISRRGGRTYYADSVKGRFTISRDNAKNTVYLQMNSLKPEDTAVYYCAVRWYSYRQRYNYWGQGTQVTVSS”, the “polyreactivity (PSR sort gate)” value is “high polyreactivity”.

As for “QVQLVESGGGLVQAGGSLRLSCAASGSIFKVYAMGWYRQAPGKERELVASISYSGGSTYYADSVKGRFTISRDNAKNTVYLQMNSLKPEDTAVYYCNADTITYQGYDYGYWGQGTQVTVSS”, the “polyreactivity (PSR sort gate)” value is listed as “low polyreactivity”.

With “QVQLVESGGGLVQAGGSLRLSCAASGRTFGKYAMGWYRQAPGKERELVAAITNSGGSTYYADSVKGRFTISRDNAKNTVYLQMNSLKPEDTAVYYCNRLGYRGTSKLNHMGYWGQGTQVTVSS”, the “polyreactivity (PSR sort gate)” value is given as “high polyreactivity”.

“QVQHVESGGGLVQAGGSLRLSCAASGRTFGINALGWYSQAPGNESELVADISGDGGNTYYADSVKGRFTISRDNAKNTVFLQMNSLKPEDTAVYFCATRYEKFRYDYWGQGTQVTVSS”: the “polyreactivity (PSR sort gate)” value is “low polyreactivity”.

For “QVQLVESGGRLVQAGGSLRLSCAASGRIFSIYGMGWYRPAPGKERELVAVISGSVGITYYADSVKGRFTISRDNAKNTVYLQMNSLKPEDTAVYYCNAKVRRRKYDYWGQGTQVTVSS”, the “polyreactivity (PSR sort gate)” value is reported as “high polyreactivity”.

Take “QVQQQESGGGLVQAGGSLRLSCAASGTIFQLTVMGRYRQAPGKERELVASIDYGGNTNYADSVKGRFTISRDNAKYTVYLLMISLKPEDTAVYYCAASSVSWTTHPYWGQGTQVTVSS”: the “polyreactivity (PSR sort gate)” value was “low polyreactivity”.

Turning to “QVQLVESGGGLVQAGGSLRLSCAASGFIFVKYAMGWYRQAPGKERELVAAISWSGGTTYYADSVKGRFTISRDNANNTVYLQMNSLKPEDTAVYYCAAEYYTGYFKYDYWGQGTQVTVSS”, the “polyreactivity (PSR sort gate)” value is reported as “high polyreactivity”.

On to “QVQLQESGGGLVQVGGSLRLSCAASGTIIIYGFLGWNRQAPGKERELVASINLGGITNYADSVKGRFTISRDNAKNTVYLQMISLKPEDTAVYYCAAYVVTGQNYGYWGQGTQVTVSS”, for which the “polyreactivity (PSR sort gate)” value was “low polyreactivity”.

Consider “QVQLLESGGGLVQAGGSLRLSCAASGSIFYRYAMGWYRQAPGKEREFVAAISGSGSSTYYADSVKGRFTISRDNAKNTVYLQMNSLKPEDTAVYYCAARWRYYGSFDYWGQGTQVTVSS”, for which the “polyreactivity (PSR sort gate)” value was “high polyreactivity”.

For the sequence “QVQLVESGGGLVQAGGSLRLSCAASGLTFWWYAMGWYRQAPGKQRELVAGITGGGSTSYADSVKGRFTISRDNAKNTVYLQMNSLKPEDTAVYYCAASPYNGQRTWYKYFFLGDYWGQGTQVTVSS”, the “polyreactivity (PSR sort gate)” value is reported as “high polyreactivity”.
